The subject of experiment [1] is advanced leukemia. To be noted: clinical studies; cited from earlier work.
The test system of experiment [2] is bone marrow cells from AML and CML patients. Put plainly: AML/CML patient bone marrow cell proliferation (colony assay). It is filed as cell-based, human. To be noted: FIG. 4. As for the experimental part: PBMC and BM (5×10^4 cells) were incubated at 37° C. in methylcellulose-based media containing 1% methylcellulose in Iscove MDM, 30% foetal bovine serum, 1% BSA, 10^−4 M 2-mercaptoethanol and 2 mM of L-glutamine supplemented (+CSF) or not (−CSF) by 50 ng/mL of rhSCF, 10 ng/mL of rhIL-3, and 10 ng/mL of rhGM-CSF to support optimal growth of CFU-Granulocyte Macrophage (CFU-GM) CFU-Granulocyte (CFU-G) and CFU-Macrophage (CFU-M). Different concentrations of S100A12, S100A8, and/or S100A9 were also added to the cells. After 15 days, colony-forming units were counted.
Bone marrow cells were obtained by aspirates from a CML patient. (A) The cells were cultured for 14 days in Iscove medium supplemented with 15% FCS and 2% methylcellulose, in presence of increasing concentrations of S100A12. (B) The cells were culture for 14 days in presence of 10 pg/ml of S100A8, S100A9, S100A8/A9, or S100A12 in a methylcellulose medium supplemented or not with 50 ng/ml of Stem cell factor, 10 ng/ml of GM-CSF, and 10 ng/ml of IL-3. The results are the number of colonies per 30 mm^2 petri dishes (FIG. 4). As observed in Example III, different S100 proteins have stimulatory activity on bone marrow cells.

In experiment [3] the test system is bone marrow cells. The experiment in a line: Bone marrow cell proliferation (colonies in methylcellulose, 14 days). It counts as cell-based, mice. To be noted: mouse bone marrow cells, FIG. 3. As to the method: Bone marrow cells were collected by flushing PBS through incisions made in the femurs of mice, followed by disaggregation. After removing contaminating erythrocytes by hypoosmotic lysis, bone marrow cells were cultured in semi-solid state in Methocult methylcellulose-based media (Stemcell technologies) for 14 days in presence of increasing concentrations of S100A8. At the end of the incubation period, the colonies were numerated. Similar results were obtained with S100A9, S100A8/A9, and S100A12. Results are from one experiment representative of 2 others (FIG. 3). All monomers and heterodimers have shown a growth stimulatory activity on bone marrow cells.

Experiment [4] relates to leukocytes. Put plainly: Leukocyte accumulation in the murine air pouch model. To be noted: air pouch exudate; remainder monocytes. It is filed as in vivo, mice. As to the method:
S100A8, S100A9, and S100A12 induce an inflammatory reaction when injected in the murine air pouch model. In this model, sterile air is injected subcutaneously under the dorsum of mice on days 0 and 3. On day 7, an enclosed environment is formed in which it is possible to inject pro-inflammatory products. Injection of S100A8, S100A9, S100A12, or S100A8/A9 in the air pouch leads to the accumulation within 3 hrs of up to 8×10^6 leukocytes (FIG. 1). Leukocytes recruited consists of neutrophils (80%) and monocytes. The total number of neutrophils circulating in the peripheral blood of a mouse is estimated at 2.5×10^6 cells. […] This is confirmed by i.v. injections of S100 proteins which leads to the release of neutrophils from the bone marrow to the peripheral blood (FIG. 2). […] More importantly, the concentrations at which they exerted these functions are similar to those found in the plasma of patients suffering, for example but not limited to, from AML and CML.
Air pouches were raised in 10 to 12 week-old CD-1 mice. One ml of murine S100A8 ([…], 5 nM) or phosphate buffered saline (PBS) were injected into the air pouches and the migrating leukocytes were harvested by washing with PBS-EDTA 5 mM at various times. Leukocytes in exudates were counted, centrifuged on microscope slides and stained with Wright-Giemsa. Data represent the mean±SEM of at least 7 mice (FIG. 1).

As to `Nc1ccn([C@@H]2CO[C@H](CO)O2)c(=O)n1` [β-L-OddC, (−)-β-L-Dioxolane-Cytidine], in experiment [1], the “activity in patients with advanced leukemia” value was “significant activity”.

B1: S100A9: recombinant S100 calcium-binding protein, Myeloid Related Protein (MRP) (protein, UniProt P06702 1-114, looked up)
Protein S100-A9: MTCKMSQLERNIETIINTFHQYSVKLGHPDTLNQGEFKELVRKDLQNFLKKENKNEKVIEHIMEDLDTNADKQLSFEEFIMLMARLTWASHEKMHEGDEGPGHHHKPGLGEGTP
With B1, the “proliferation of bone marrow cells from AML and CML patients” value in experiment [2] was “proliferation also occurs”. The “proliferation of bone marrow cells” value in experiment [3] is recorded as “increase of proliferation”. In addition, the “neutrophils among leukocytes recruited” value in experiment [4] was determined as 80%.

B2: S100A8: recombinant S100 calcium-binding protein, Myeloid Related Protein (MRP) (protein, UniProt P05109 1-93, looked up)
Protein S100-A8: MLTELEKALNSIIDVYHKYSLIKGNFHAVYRDDLKKLLETECPQYIRKKGADVWFKELDINTDGAVNFQEFLILVIKMGVAAHKKSHEESHKE
For the molecule B2, in experiment [2], the “proliferation of bone marrow cells from AML and CML patients” value is on record as “proliferation also occurs”. In addition, the “proliferation of bone marrow cells” value in experiment [3] is recorded as “increase of proliferation”. The “neutrophils among leukocytes recruited” value in experiment [4] is given as 80%.

B3: S100A8/A9: heterodimer of S100A8 and S100A9 (protein, UniProt P05109 1-93; P06702 1-114, looked up)
Protein S100-A8: B2 Protein S100-A8
Protein S100-A9: B1 Protein S100-A9
As to B3, the “proliferation of bone marrow cells” value in experiment [3] is recorded as “increase of proliferation”. For the same molecule, in experiment [4], the “neutrophils among leukocytes recruited” value stood at 80%.

The values above are taken from patent US20150110774A1, “S100 PROTEIN INHIBITORS FOR TREATING LEUKEMIA” (UNIVERSITE LAVAL, priority 2004, published 2015).
